This is an account of results in patent publication US20210254072, “TNF-TARGETING APTAMERS AND USES THEREOF FOR TREATMENT OR DIAGNOSING TNF-RELATED INFLAMMATORY DISEASES” (Academia Sinica, published 2021).

In one data set the target is TNF-alpha (Mus musculus, UniProt P06804 P06804:80-235). Description: filter; 140 nM protein, 50 nM aptamer; fold over BSA, value only in figure. Conditions: chain copies: 3 (inferred). The method, then:
(§1) Human TNF-α proteins (0, 8.75, 17.5, 35, 70, 140 nM, R&D Systems) were incubated with aptTNF-α (50 nM) at 37° C. for 1 h. In addition, mouse TNF-α proteins (140 nM) or BSA (140 nM) were incubated with aptTNF-α (50 nM) or aptTNF-α-PEG (50 nM) as well. The protein-bound aptamers were then collected by nitrocellulose filter and eluted by heating. The amount of the eluted aptamers was quantified by quantitative PCR (LightCycler 480 system, Roche Applied Science, Mannheim, Germany) The dissociated constant (Kd) was calculated by GraphPad Prism 5 (GraphPad Software, San Diego, Calif.), using the equation Y=Amax×X/(Kd+X). The relative amounts of protein-binding aptamers (human TNF-α proteins and mouse TNF-α proteins) were represented as fold changes, using BSA as the reference (1 fold).

Data set [1] addresses BSA (bovine serum albumin) (UniProt P02769 P02769:25-607). Description: filter; BSA 140 nM used as reference (1 fold). As for the experimental part:
as §1

BSA (bovine serum albumin), sequence (P02769 25-607, one chain of several): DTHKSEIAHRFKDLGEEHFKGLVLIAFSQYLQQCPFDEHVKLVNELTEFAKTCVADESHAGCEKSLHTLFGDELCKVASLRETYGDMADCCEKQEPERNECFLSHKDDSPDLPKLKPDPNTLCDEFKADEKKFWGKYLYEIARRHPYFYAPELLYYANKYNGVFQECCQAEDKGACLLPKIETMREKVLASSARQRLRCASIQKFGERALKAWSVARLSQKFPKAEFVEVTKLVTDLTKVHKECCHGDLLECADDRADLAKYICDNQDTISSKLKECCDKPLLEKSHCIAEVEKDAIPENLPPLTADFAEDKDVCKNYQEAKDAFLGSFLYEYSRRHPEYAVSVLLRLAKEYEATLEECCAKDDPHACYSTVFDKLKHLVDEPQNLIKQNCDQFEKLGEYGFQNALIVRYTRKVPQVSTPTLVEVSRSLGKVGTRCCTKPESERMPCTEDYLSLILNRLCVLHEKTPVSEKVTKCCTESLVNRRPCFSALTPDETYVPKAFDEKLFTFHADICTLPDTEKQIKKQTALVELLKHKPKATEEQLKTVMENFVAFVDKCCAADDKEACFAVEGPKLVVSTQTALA
TNF-alpha, sequence (P06804 80-235, one chain of several): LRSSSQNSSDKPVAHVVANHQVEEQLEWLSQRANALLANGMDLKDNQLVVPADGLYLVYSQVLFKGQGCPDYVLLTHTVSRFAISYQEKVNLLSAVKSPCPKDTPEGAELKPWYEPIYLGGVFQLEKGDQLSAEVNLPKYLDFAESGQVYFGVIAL

GCGCCACTACAGGGGAGCTGCCATTCGAATAGGTGGGCCGC (ssDNA) [aptTNF-alpha]: the binding result with TNF-alpha is “binds”. In data set [1], the binding signal amounted to 1 fold.

As for GCGCCACTACAGGGGAGCTGCCATTCGAATAGGTGGGCCGC (ssDNA, two copies of amine-labeled SEQ ID NO: 1 linked by 20 kDa PEG (NHS-PEG-NHS)) [aptTNF-alpha-PEG (dimer)], in the data set with TNF-alpha, the binding result was “binds”. This molecule also displayed a binding signal in data set [1] of 1 fold.
